# Tests used:
# Assay in all cases: cell-based or functional assay
# [1] = target: New Caledonia/20/99(H1N1) (Influenza A virus New Caledonia/20/99 …)
# [2] = target: A/swine/Jalisco/12-13/2012(H1N1) (Influenza A virus …)
# [3] = target: Solomon Islands/3/2006(H1N1) (Influenza A virus Solomon …)
binder,measurement,setting,value
"3E6单克隆抗体 (antibody, V domains shown) VH: EVQLEESGTELARPGASVKLALKASGYIFSSYSGQWIKQRPGAGLELIGYPYPGWIDTRYTQKLTGKATLTADKSSSTLYMQLSSLASEDSAVAYCAGSYFSSDAWGLGTTLAVSS VL: DIVLTQSPALMAASAGEKVTITCAVSQSIQSGYLAWYQQKSGISPKPWIYDTSNQAGGVPARFSGAGSGTSYSLTITSMEAEDAATYYCAQGTTSPLSFGAGTKLELK","中和活性 (Lenti-pseudovirus, 293A细胞, β-gal; 抗体浓度 0.01μg/mL)",[1],0.865
same,"中和活性 (Lenti-pseudovirus, 293A细胞, β-gal; 抗体浓度 0.01μg/mL)",[2],0.974
same,"中和活性 (Lenti-pseudovirus, 293A细胞, β-gal; 抗体浓度 0.01μg/mL)",[3],0.843
